From article PMC7768682 (Proceedings of the National Academy of Sciences of the …, 2020)
Ends that are not written are not given here.

Key:
Assay in all cases: BLI
talin head t1-435 = talin head t1-435 (human, UniProt Q9Y490 1-435)
talin head t1-400 = talin head t1-400 (human, UniProt Q9Y490 1-400)
talin head t1-405 = talin head t1-405 (human, UniProt Q9Y490 1-405)

Measured: binding result

Chain of talin head t1-400 (Q9Y490 1-400): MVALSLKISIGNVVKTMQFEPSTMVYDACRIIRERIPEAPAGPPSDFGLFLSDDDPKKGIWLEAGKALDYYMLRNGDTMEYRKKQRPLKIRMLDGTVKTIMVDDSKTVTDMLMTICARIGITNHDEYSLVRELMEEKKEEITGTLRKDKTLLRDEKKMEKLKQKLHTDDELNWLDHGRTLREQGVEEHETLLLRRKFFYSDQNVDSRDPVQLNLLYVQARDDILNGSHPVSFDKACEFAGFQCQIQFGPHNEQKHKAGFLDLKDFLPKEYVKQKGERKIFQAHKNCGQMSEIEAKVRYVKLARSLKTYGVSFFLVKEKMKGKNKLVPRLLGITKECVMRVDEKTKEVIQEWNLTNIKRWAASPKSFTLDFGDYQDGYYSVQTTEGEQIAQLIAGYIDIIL
Chain of talin head t1-435 (Q9Y490 1-435): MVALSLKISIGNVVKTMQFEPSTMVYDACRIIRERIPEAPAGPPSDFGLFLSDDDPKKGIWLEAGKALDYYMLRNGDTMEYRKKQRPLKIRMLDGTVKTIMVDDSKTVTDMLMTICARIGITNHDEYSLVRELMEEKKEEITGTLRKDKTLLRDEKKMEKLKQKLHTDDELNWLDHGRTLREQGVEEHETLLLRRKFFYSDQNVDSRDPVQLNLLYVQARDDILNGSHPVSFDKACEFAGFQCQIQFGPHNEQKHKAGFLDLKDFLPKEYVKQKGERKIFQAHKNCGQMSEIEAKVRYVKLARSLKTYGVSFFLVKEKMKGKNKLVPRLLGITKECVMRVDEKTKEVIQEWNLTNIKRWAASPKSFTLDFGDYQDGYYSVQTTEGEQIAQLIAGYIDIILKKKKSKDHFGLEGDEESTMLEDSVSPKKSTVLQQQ
Chain of talin head t1-405 (Q9Y490 1-405): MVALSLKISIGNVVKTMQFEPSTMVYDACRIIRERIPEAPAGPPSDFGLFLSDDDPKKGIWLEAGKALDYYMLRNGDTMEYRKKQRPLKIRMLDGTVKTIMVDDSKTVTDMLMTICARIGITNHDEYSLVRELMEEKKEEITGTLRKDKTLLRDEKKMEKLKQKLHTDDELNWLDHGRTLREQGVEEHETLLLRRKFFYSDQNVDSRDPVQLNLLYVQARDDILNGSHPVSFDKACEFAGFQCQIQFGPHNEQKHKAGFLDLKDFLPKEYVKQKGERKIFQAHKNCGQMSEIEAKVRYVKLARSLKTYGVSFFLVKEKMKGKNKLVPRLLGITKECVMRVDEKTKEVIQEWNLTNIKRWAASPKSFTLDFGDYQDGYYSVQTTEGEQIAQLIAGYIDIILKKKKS

B1: GST-integrin β3 cytoplasmic tail fusion, wild type (WT-β3) (domain or fragment)
chain: {GST}-GSKLLITIHDRKEFAKFEEERARAKWDTANNPLYKEATSTFTNITYRGT
binds: all assays above
